Measurements from US20220298218A1 (ANTAG THERAPEUTICS, published 2022).
*1 amine or outer side, *2 acyl side, *3 side chain or, on linkers, in order; H or OH if unused. Where no end group is shown, it is not given here. Side-chain parts run from the residue outwards. The star is where a group is joined. C18 diacid = O=C(O)CCCCCCCCCCCCCCCCC(=O)*; C16 diacid = O=C(O)CCCCCCCCCCCCCCC(=O)*; γGlu = O=C(O)[C@H](CCC(=O)[*:2])N[*:1]; AEEA = NCCOCCOCC(=O)O

T1: human GIP receptor (human, UniProt P48546 22-466)
T1 sequence (looked up): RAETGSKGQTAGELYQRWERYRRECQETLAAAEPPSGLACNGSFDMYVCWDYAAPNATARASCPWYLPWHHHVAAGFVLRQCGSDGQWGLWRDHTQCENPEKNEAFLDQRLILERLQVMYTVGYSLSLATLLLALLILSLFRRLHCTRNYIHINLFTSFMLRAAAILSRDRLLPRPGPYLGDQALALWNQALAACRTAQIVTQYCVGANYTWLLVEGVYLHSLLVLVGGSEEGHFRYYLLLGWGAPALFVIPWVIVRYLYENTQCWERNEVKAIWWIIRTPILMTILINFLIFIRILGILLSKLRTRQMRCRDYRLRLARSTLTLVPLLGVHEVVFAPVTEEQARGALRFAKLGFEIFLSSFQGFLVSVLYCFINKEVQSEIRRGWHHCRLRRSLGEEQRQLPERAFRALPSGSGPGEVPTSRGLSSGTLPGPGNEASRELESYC


target: T1, human GIP receptor; experiment: cell-based or functional assay

Binder	cAMP antagonism [nM]	cAMP antagonism % inhib [%]	cAMP antagonism log [log M]
TFISDYK([AEEA-AEEA-γGlu-C16 diacid])IAMDRIHQQDFVNWLLAQRGPSSGAPPPS-OH (N-terminus assumed; SMILES CC[C@H](C)[C@H](NC(=O)[C@H](CCCCNC(=O)COCCOCCNC(=O)COCCOCCNC(=O)CC[C@H](NC(=O)CCCCCCCCCCCCCCC(=O)O)C(=O)O)NC(=O)[C@H](Cc1ccc(O)cc1)NC(=O)[C@H](CC(=O)O)NC(=O)[C@H](CO)NC(=O)[C@@H](NC(=O)[C@H](Cc1ccccc1)NC(=O)[C@@H](N)[C@@H](C)O)[C@@H](C)CC)C(=O)N[C@@H](C)C(=O)N[C@@H](CCSC)C(=O)N[C@@H](CC(=O)O)C(=O)N[C@@H](CCCNC(=N)N)C(=O)N[C@H](C(=O)N[C@@H](Cc1c[nH]cn1)C(=O)N[C@@H](CCC(N)=O)C(=O)N[C@@H](CCC(N)=O)C(=O)N[C@@H](CC(=O)O)C(=O)N[C@@H](Cc1ccccc1)C(=O)N[C@H](C(=O)N[C@@H](CC(N)=O)C(=O)N[C@@H](Cc1c[nH]c2ccccc12)C(=O)N[C@@H](CC(C)C)C(=O)N[C@@H](CC(C)C)C(=O)N[C@@H](C)C(=O)N[C@@H](CCC(N)=O)C(=O)N[C@@H](CCCNC(=N)N)C(=O)NCC(=O)N1CCC[C@H]1C(=O)N[C@@H](CO)C(=O)N[C@@H](CO)C(=O)NCC(=O)N[C@@H](C)C(=O)N1CCC[C@H]1C(=O)N1CCC[C@H]1C(=O)N1CCC[C@H]1C(=O)N[C@@H](CO)C(=O)O)C(C)C)[C@@H](C)CC) [AT443]	171	100	-6.8
TFISDYK([AEEA-AEEA-AEEA-γGlu-C16 diacid])IAMDRIHQQDFVNWLLAQRGPSSGAPPPS-OH (N-terminus assumed; SMILES CC[C@H](C)[C@H](NC(=O)[C@H](CCCCNC(=O)COCCOCCNC(=O)COCCOCCNC(=O)COCCOCCNC(=O)CC[C@H](NC(=O)CCCCCCCCCCCCCCC(=O)O)C(=O)O)NC(=O)[C@H](Cc1ccc(O)cc1)NC(=O)[C@H](CC(=O)O)NC(=O)[C@H](CO)NC(=O)[C@@H](NC(=O)[C@H](Cc1ccccc1)NC(=O)[C@@H](N)[C@@H](C)O)[C@@H](C)CC)C(=O)N[C@@H](C)C(=O)N[C@@H](CCSC)C(=O)N[C@@H](CC(=O)O)C(=O)N[C@@H](CCCNC(=N)N)C(=O)N[C@H](C(=O)N[C@@H](Cc1c[nH]cn1)C(=O)N[C@@H](CCC(N)=O)C(=O)N[C@@H](CCC(N)=O)C(=O)N[C@@H](CC(=O)O)C(=O)N[C@@H](Cc1ccccc1)C(=O)N[C@H](C(=O)N[C@@H](CC(N)=O)C(=O)N[C@@H](Cc1c[nH]c2ccccc12)C(=O)N[C@@H](CC(C)C)C(=O)N[C@@H](CC(C)C)C(=O)N[C@@H](C)C(=O)N[C@@H](CCC(N)=O)C(=O)N[C@@H](CCCNC(=N)N)C(=O)NCC(=O)N1CCC[C@H]1C(=O)N[C@@H](CO)C(=O)N[C@@H](CO)C(=O)NCC(=O)N[C@@H](C)C(=O)N1CCC[C@H]1C(=O)N1CCC[C@H]1C(=O)N1CCC[C@H]1C(=O)N[C@@H](CO)C(=O)O)C(C)C)[C@@H](C)CC) [AT444]	153	100	-6.8
TFISDYK([AEEA-AEEA-AEEA-γGlu-C16 diacid])IAMDRIHQQDFVNWLLAQRGRRNDW-OH (N-terminus assumed; SMILES CC[C@H](C)[C@H](NC(=O)[C@H](CCCCNC(=O)COCCOCCNC(=O)COCCOCCNC(=O)COCCOCCNC(=O)CC[C@H](NC(=O)CCCCCCCCCCCCCCC(=O)O)C(=O)O)NC(=O)[C@H](Cc1ccc(O)cc1)NC(=O)[C@H](CC(=O)O)NC(=O)[C@H](CO)NC(=O)[C@@H](NC(=O)[C@H](Cc1ccccc1)NC(=O)[C@@H](N)[C@@H](C)O)[C@@H](C)CC)C(=O)N[C@@H](C)C(=O)N[C@@H](CCSC)C(=O)N[C@@H](CC(=O)O)C(=O)N[C@@H](CCCNC(=N)N)C(=O)N[C@H](C(=O)N[C@@H](Cc1c[nH]cn1)C(=O)N[C@@H](CCC(N)=O)C(=O)N[C@@H](CCC(N)=O)C(=O)N[C@@H](CC(=O)O)C(=O)N[C@@H](Cc1ccccc1)C(=O)N[C@H](C(=O)N[C@@H](CC(N)=O)C(=O)N[C@@H](Cc1c[nH]c2ccccc12)C(=O)N[C@@H](CC(C)C)C(=O)N[C@@H](CC(C)C)C(=O)N[C@@H](C)C(=O)N[C@@H](CCC(N)=O)C(=O)N[C@@H](CCCNC(=N)N)C(=O)NCC(=O)N[C@@H](CCCNC(=N)N)C(=O)N[C@@H](CCCNC(=N)N)C(=O)N[C@@H](CC(N)=O)C(=O)N[C@@H](CC(=O)O)C(=O)N[C@@H](Cc1c[nH]c2ccccc12)C(=O)O)C(C)C)[C@@H](C)CC) [AT428]	296	90	-6.5
TFISDYK([AEEA-AEEA-AEEA-γGlu-C18 diacid])IAMDRIHQQDFVNWLLAQRGPSSGAPPPS-OH (N-terminus assumed; SMILES CC[C@H](C)[C@H](NC(=O)[C@H](CCCCNC(=O)COCCOCCNC(=O)COCCOCCNC(=O)COCCOCCNC(=O)CC[C@H](NC(=O)CCCCCCCCCCCCCCCCC(=O)O)C(=O)O)NC(=O)[C@H](Cc1ccc(O)cc1)NC(=O)[C@H](CC(=O)O)NC(=O)[C@H](CO)NC(=O)[C@@H](NC(=O)[C@H](Cc1ccccc1)NC(=O)[C@@H](N)[C@@H](C)O)[C@@H](C)CC)C(=O)N[C@@H](C)C(=O)N[C@@H](CCSC)C(=O)N[C@@H](CC(=O)O)C(=O)N[C@@H](CCCNC(=N)N)C(=O)N[C@H](C(=O)N[C@@H](Cc1c[nH]cn1)C(=O)N[C@@H](CCC(N)=O)C(=O)N[C@@H](CCC(N)=O)C(=O)N[C@@H](CC(=O)O)C(=O)N[C@@H](Cc1ccccc1)C(=O)N[C@H](C(=O)N[C@@H](CC(N)=O)C(=O)N[C@@H](Cc1c[nH]c2ccccc12)C(=O)N[C@@H](CC(C)C)C(=O)N[C@@H](CC(C)C)C(=O)N[C@@H](C)C(=O)N[C@@H](CCC(N)=O)C(=O)N[C@@H](CCCNC(=N)N)C(=O)NCC(=O)N1CCC[C@H]1C(=O)N[C@@H](CO)C(=O)N[C@@H](CO)C(=O)NCC(=O)N[C@@H](C)C(=O)N1CCC[C@H]1C(=O)N1CCC[C@H]1C(=O)N1CCC[C@H]1C(=O)N[C@@H](CO)C(=O)O)C(C)C)[C@@H](C)CC) [AT446]	152	100	-6.8
TFISDYK([AEEA-AEEA-γGlu-C18 diacid])IAMDRIHQQDFVNWLLAQRGPSSGAPPPS-OH (N-terminus assumed; SMILES CC[C@H](C)[C@H](NC(=O)[C@H](CCCCNC(=O)COCCOCCNC(=O)COCCOCCNC(=O)CC[C@H](NC(=O)CCCCCCCCCCCCCCCCC(=O)O)C(=O)O)NC(=O)[C@H](Cc1ccc(O)cc1)NC(=O)[C@H](CC(=O)O)NC(=O)[C@H](CO)NC(=O)[C@@H](NC(=O)[C@H](Cc1ccccc1)NC(=O)[C@@H](N)[C@@H](C)O)[C@@H](C)CC)C(=O)N[C@@H](C)C(=O)N[C@@H](CCSC)C(=O)N[C@@H](CC(=O)O)C(=O)N[C@@H](CCCNC(=N)N)C(=O)N[C@H](C(=O)N[C@@H](Cc1c[nH]cn1)C(=O)N[C@@H](CCC(N)=O)C(=O)N[C@@H](CCC(N)=O)C(=O)N[C@@H](CC(=O)O)C(=O)N[C@@H](Cc1ccccc1)C(=O)N[C@H](C(=O)N[C@@H](CC(N)=O)C(=O)N[C@@H](Cc1c[nH]c2ccccc12)C(=O)N[C@@H](CC(C)C)C(=O)N[C@@H](CC(C)C)C(=O)N[C@@H](C)C(=O)N[C@@H](CCC(N)=O)C(=O)N[C@@H](CCCNC(=N)N)C(=O)NCC(=O)N1CCC[C@H]1C(=O)N[C@@H](CO)C(=O)N[C@@H](CO)C(=O)NCC(=O)N[C@@H](C)C(=O)N1CCC[C@H]1C(=O)N1CCC[C@H]1C(=O)N1CCC[C@H]1C(=O)N[C@@H](CO)C(=O)O)C(C)C)[C@@H](C)CC) [AT445]	47	85	-7.3
TFISDYK([AEEA-AEEA-AEEA-γGlu-C18 diacid])IAMDRIHQQDFVNWLLAQRGRRNDW-OH (N-terminus assumed; SMILES CC[C@H](C)[C@H](NC(=O)[C@H](CCCCNC(=O)COCCOCCNC(=O)COCCOCCNC(=O)COCCOCCNC(=O)CC[C@H](NC(=O)CCCCCCCCCCCCCCCCC(=O)O)C(=O)O)NC(=O)[C@H](Cc1ccc(O)cc1)NC(=O)[C@H](CC(=O)O)NC(=O)[C@H](CO)NC(=O)[C@@H](NC(=O)[C@H](Cc1ccccc1)NC(=O)[C@@H](N)[C@@H](C)O)[C@@H](C)CC)C(=O)N[C@@H](C)C(=O)N[C@@H](CCSC)C(=O)N[C@@H](CC(=O)O)C(=O)N[C@@H](CCCNC(=N)N)C(=O)N[C@H](C(=O)N[C@@H](Cc1c[nH]cn1)C(=O)N[C@@H](CCC(N)=O)C(=O)N[C@@H](CCC(N)=O)C(=O)N[C@@H](CC(=O)O)C(=O)N[C@@H](Cc1ccccc1)C(=O)N[C@H](C(=O)N[C@@H](CC(N)=O)C(=O)N[C@@H](Cc1c[nH]c2ccccc12)C(=O)N[C@@H](CC(C)C)C(=O)N[C@@H](CC(C)C)C(=O)N[C@@H](C)C(=O)N[C@@H](CCC(N)=O)C(=O)N[C@@H](CCCNC(=N)N)C(=O)NCC(=O)N[C@@H](CCCNC(=N)N)C(=O)N[C@@H](CCCNC(=N)N)C(=O)N[C@@H](CC(N)=O)C(=O)N[C@@H](CC(=O)O)C(=O)N[C@@H](Cc1c[nH]c2ccccc12)C(=O)O)C(C)C)[C@@H](C)CC) [AT430]	153	100	-6.8
